Values belong to the substance of their own block, whether it stands above or below them.
What was measured:
M2 mAChR [1] = molecular target: T1, M2 mAChR (Homo sapiens, UniProt P08172, DEL226-389); assay: [3H]-NMS interaction binding with LY211 and/or G protein at M2 mAChR nanodiscs (full interaction and titration); conditions: Titration against KD concentration of [3H]-NMS, ATCM
T1 construct: made in house; host or cells: Sf9 insect cells (receptor, baculovirus); Trichoplusia ni Hi5 cells (G protein); E. coli BL21(DE3) (cMSP1D1 scaffold)
T1 sequence (P08172 with tags, fused parts or gaps DEL226-389): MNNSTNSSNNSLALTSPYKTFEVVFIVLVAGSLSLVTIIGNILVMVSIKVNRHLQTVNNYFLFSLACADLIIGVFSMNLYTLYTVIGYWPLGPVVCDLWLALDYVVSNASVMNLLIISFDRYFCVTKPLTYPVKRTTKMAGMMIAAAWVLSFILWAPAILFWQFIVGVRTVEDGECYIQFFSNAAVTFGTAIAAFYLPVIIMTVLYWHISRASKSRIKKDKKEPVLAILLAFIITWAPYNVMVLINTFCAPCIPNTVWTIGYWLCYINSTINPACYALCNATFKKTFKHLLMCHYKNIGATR
Experimental: (§1) The affinity of [^3H]-NMS for M2 mAChR in nanodiscs, as well as the concentration of receptor in nanodiscs, was determined through saturation binding with [^3H]-NMS. M2 nanodiscs were incubated with a range of concentrations of [^3H] […] Membrane equilibrium binding experiments were performed with 15 μg of membrane expressing the WT hM2 mAChR in a 300-μl reaction volume of binding buffer with or without 100 μM Gpp[NH]pp in deep 96-well plates for 6 hours at RT. […] For all radioligand binding experiments, nonspecific binding was defined by 10 μM Atr and the assay was terminated through rapid filtration through Whatman GF/B filter plates using a 96-well harvester (PerkinElmer). Filter plates were dried overnight, and radioactivity was determined by adding 40 μl of MicroScint-O scintillation fluid and counting in a MicroBeta^2 Plate Counter (PerkinElmer Life Sciences).
(§2) All data were analyzed using GraphPad Prism 9 (GraphPad Software, San Diego, CA). […] For competition binding experiments between [^3H]-NMS and a range of concentrations of unlabeled orthosteric agonist at M2 mAChR nanodiscs in the presence of G protein and for competition binding at M2 mAChR membranes, data were fit to a two-site competition binding model or a one-site competition binding model. […] Monoexponential decay and one-phase association equations were fit to the radioligand dissociation and association data at M2 mAChR nanodiscs.

M2 mAChR [2] = molecular target: T1, M2 mAChR; assay: [3H]-NMS competition binding at M2 mAChR nanodiscs with or without Gi1 protein; conditions: 1:2000 molar ratio M2 mAChR:G protein, [3H]-NMS competition binding
Experimental: as §1, §2

[3] = molecular target: M2ΔICL3 mAChR (Flag-M2ΔICL3-His) reconstituted into cMSP1D1 nanodiscs (human) (UniProt P08172)
[4] = molecular target: M2ΔICL3 mAChR (Flag-M2ΔICL3-His) reconstituted into cMSP1D1 nanodiscs (human) (UniProt P08172); assay: radioligand binding; Gi1 heterotrimer titrated (R:G ratios plotted as molar concentration) against a KD concentration of [3H]-NMS at M2 mAChR nanodiscs; affinity for the NMS-bound receptor from the allosteric ternary complex model (ATCM); 20 mM Hepes pH 7.5, 100 mM NaCl, 10 mM MgCl2, 0.5% BSA; 6 hours at RT; filtration; conditions: scale: negative logarithm of the equilibrium dissociation constant

Log α[3H]-NMS (M2 mAChR [1]): −0.55 ± 0.16 (10)
pKB (M2 mAChR [1]): 7.37 ± 0.22 (10)
Log α[3H]-NMS (M2 mAChR [1]; listed as Gi1): −0.55 ± 0.16
Substance: G protein heterotrimer: purified WT G protein heterotrimer (Gαi1β1γ2)

Substance: Gq: purified heterotrimeric G protein, Gq α subunit with Gβ1γ2
effect of G protein heterotrimer on ACh affinity (M2 mAChR [2]): could not mediate any change in ACh affinity

FracHi: fraction of receptors in the high-affinity state for ACh, [3H]-NMS competition binding at M2 mAChR nanodiscs, receptor:G protein molar ratio 1:0 to 1:2000 (highest at 1:2000) [3]: 1
FracHi: fraction of receptors in the high-affinity state for Ipx, [3H]-NMS competition binding at M2 mAChR nanodiscs, receptor:G protein molar ratio 1:0 and 1:500 to 1:2000 (highest at 1:2000) [3]: 0.91
FracHi: fraction of receptors in the high-affinity state for Pilo, [3H]-NMS competition binding at M2 mAChR nanodiscs, receptor:G protein molar ratio 1:0 and 1:500 to 1:2000 (highest at 1:2000) [3]: 0.73
pKB [4]: 7.37
Substance: WT G protein heterotrimer Gαi1β1γ2 (from UniProt P63096 1-354; P62873 1-340; P59768 1-71) (complex)
